B1: Beta-arrestin-1 (Homo sapiens), P49407-1 (parent)
chain: MGDKGTRVFKKASPNGKLTVYLGKRDFVDHIDLVDPVDGVVLVDPEYLKERRVYVTLTCAFRYGREDLDVLGLTFRKDLFVANVQSFPPAPEDKKPLTRLQERLIKKLGEHAYPFTFEIPPNLPCSVTLQPGPEDTGKACGVDYEVKAFCAENLEEKIHKRNSVRLVIRKVQYAPERPGPQPTAETTRQFLMSDKPLHLEASLDKEIYYHGEPISVNVHVTNNTNKTVKKIKISVRQYADICLFNTAQYKCPVAMEEADDTVAPSSTFCKVYTLTPFLANNREKRGLALDGKLKHEDTNLASSTLLREGANREILGIIVSYKVKVKLVVSRGGLLGDLASSDVAVELPFTLMHPKPKEEPPHREVPENETPVDTNLIELDTNDDDIVFEDFARQRLKGMKDDKEEEEDGTGSPQLNNR

Variants of: B1
Settings: with src_human SRC

Variant	effect of a mutation on the interaction
MGDKGTRVFKKASPNGKLTVYLGKRDFVDHIDLVDPVDGVVLVDPEYLKERRVYVTLTCAFRYGREDLDVLGLTFRKDLFVANVQSFPPAPEDKKPLTRLQERLIKKLGEHAYPFTFEIPPNLPCSVTLQPGPEDTGKACGVDYEVKAFCAENLEEKIHKRNSVRLVIRKVQYAPERPGPQPTAETTRQFLMSDKPLHLEASLDKEIYYHGEPISVNVHVTNNTNKTVKKIKISVRQYADICLFNTAQYKCPVAMEEADDTVAPSSTFCKVYTLTPFLANNREKRGLALDGKLKHEDTNLASSTLLREGANREILGIIVSYKVKVKLVVSRGGLLGDLASSDVAVELPFTLMHPKPKEEPPHREVPENETPVDTNLIELDTNDDDIVFEDFARQRLKGMKDDKEEEEDGTGDPQLNNR [S412D]	disrupting interaction strength

Reference: IntAct's records for PubMed 16432186
